Source: patent US20040005636A1, “Method for obtaining the binding affinities of a peptide library to a protein” (priority 2002, published 2004)
Ends that are not written are not given here.

Assays:
[1] = target: T1, hERα-LBD (ligand binding domain of estrogen receptor α) (human, UniProt P03372 297-554); test: fluorescence polarization, labelled peptide 10 nM, hERα-LBD titrated, diethylstilbestrol present; 100 may stand for above the assay limits
T1 construct: Assayed with estradiol, diethylstilbestrol, genistein or tamoxifen present; the ligand is named under assay in each row
T1 sequence (looked up): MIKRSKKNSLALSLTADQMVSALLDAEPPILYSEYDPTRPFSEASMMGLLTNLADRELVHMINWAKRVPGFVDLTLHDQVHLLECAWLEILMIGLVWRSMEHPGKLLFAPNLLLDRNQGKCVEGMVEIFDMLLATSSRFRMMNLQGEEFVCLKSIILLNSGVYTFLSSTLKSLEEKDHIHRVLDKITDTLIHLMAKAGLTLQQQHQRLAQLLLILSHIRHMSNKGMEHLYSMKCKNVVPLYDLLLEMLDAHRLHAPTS
Procedure: (§1) The concentration of protein varied between 0.001-20 μM in the following way. In 96 well plates, hTRβ-LBD or hERα-LBD was serially diluted from 40 μM to 0.002 μM in binding buffer (50 mM Sodium Phosphate, 150 mM NaCl, pH 7.2, 1 mM DTT, 1 mM EDTA, 0.01% NP40, 10% glycerol), containing 200 μM ligand (T₃, for TRβ, or estradiol, diethylstilbestrol, genistein or tamoxifen for ERα).
(§2) Subsequently 10 μL of diluted protein was added to 10 μL of fluorescent coregulator peptide (20 nM) in 384-well plates yielding final protein concentrations of […] and 10 nM fluorescent peptide concentration. The samples were allowed to equilibriate for 30 minutes. Binding was then measured using fluorescence polarization (excitation λ at 485 nm, emission λ at 530 nm) on an Analyst AD (available from Molecular Devices).
(§3) All experiments were carried out in quadruplicate, with each iteration containing the positive and negative controls, and 10-12 dose points. The data were then fit using Klotz plots to determine IC₅₀ values using nonlinear regression analysis that fits the data to a modification of the model of Heyduk and Lee. (Heyduk et al., Proc. Natl. Acad. Sci., (1990), 1774; Heyduk et al., Nature, (1993), 364, 6437; Heyduk et al., Methods Enzymol., 274, 492. Further analysis was conducted using Hill and Scatchard plots to confirm number and homogeneity of binding sites as discussed hereinbelow.

[2] = target: T1, hERα-LBD (ligand binding domain of …); test: fluorescence polarization, labelled peptide 10 nM, hERα-LBD titrated, genistein present; 100 may stand for above the assay limits
Procedure: as §1, §2, §3

[3] = target: T1, hERα-LBD (ligand binding domain of …); test: fluorescence polarization, labelled peptide 10 nM, hERα-LBD titrated, estradiol present; 100 may stand for above the assay limits
Procedure: as §1, §2, §3

[4] = target: T1, hERα-LBD (ligand binding domain of …); test: fluorescence polarization, hERα-LBD titrated, estradiol present; repeats Table 4; 100 may stand for above the assay limits
Procedure: as §1, §2, §3

[5] = target: T2, hTRβ-LBD (ligand binding domain of thyroid hormone receptor β) (human, UniProt P10828 202-461); test: fluorescence polarization, hTRβ-LBD titrated, T3 present; Table 3 prints >AL (assay limits) for this pair
T2 construct: Assayed with the small-molecule ligand T3 present
T2 sequence (looked up): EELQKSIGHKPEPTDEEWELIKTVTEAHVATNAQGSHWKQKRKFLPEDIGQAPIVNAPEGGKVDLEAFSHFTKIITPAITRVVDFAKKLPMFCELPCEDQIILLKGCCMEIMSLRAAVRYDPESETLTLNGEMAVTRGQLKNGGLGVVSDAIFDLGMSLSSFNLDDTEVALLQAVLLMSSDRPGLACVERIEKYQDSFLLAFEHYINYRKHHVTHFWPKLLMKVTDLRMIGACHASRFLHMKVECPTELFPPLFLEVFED
Procedure: as §1, §2, §3

Measured: Kd

C(5‑iodoacetamidofluorescein)KKENNALLRYLLDRDDPSD [SRC3-3 coregulator peptide]
100 µM: all assays above
